Publication PMC11969024 (2025)

B1: peptide HD2 (from tick evasin EVA4) / CXCL14 (biotinylated, synthetic) (parent complex)
chain 1: EEDDYTAYAPLTCYFT
chain 2: SKCKCSRKGPKIRYSDVKKLEMKPKYPHCEEKMVIITTKSVSRYRGQEHCLHPKLQSTKRFIKWYNAWNEKRRVYEE

Variants of: B1

Variant	enrichment
chain 1 Y5I	0.188 log2 (difference from the parental peptide)
chain 1 Y5H	-3.59 log2 (difference from the parental peptide)
chain 1 Y14W	-6.55 log2 (difference from the parental peptide)
chain 1 Y14Q	-6.31 log2 (difference from the parental peptide)
chain 1 Y14L	-8.75 log2 (difference from the parental peptide)
chain 1 D4S	-1.33 log2 (difference from the parental peptide)
chain 1 D4N	1.31 log2 (difference from the parental peptide)
chain 1 D4E	-4.2 log2 (difference from the parental peptide)
chain 1 D4W	-5.85 log2 (difference from the parental peptide)
chain 1 D3P	-5.77 log2 (difference from the parental peptide)
chain 1 D3E	-1.97 log2 (difference from the parental peptide)
chain 1 C13A	-6.89 log2 (difference from the parental peptide)
chain 1 C13E	-8.19 log2 (difference from the parental peptide)
chain 1 C13W	-7.91 log2 (difference from the parental peptide)
chain 1 C13D	-5.83 log2 (difference from the parental peptide)
chain 1 E2L	-1.86 log2 (difference from the parental peptide)
chain 1 E2T	-2.03 log2 (difference from the parental peptide)
chain 1 E2W	0.435 log2 (difference from the parental peptide)
chain 1 P10S	-0.979 log2 (difference from the parental peptide)
chain 1 P10G	-1.01 log2 (difference from the parental peptide)
chain 1 P10W	1.96 log2 (difference from the parental peptide)
chain 1 P10A	2.1 log2 (difference from the parental peptide)
chain 1 T12Q	-4.89 log2 (difference from the parental peptide)
chain 1 T12F	2.31 log2 (difference from the parental peptide)
chain 1 T12K	-5.85 log2 (difference from the parental peptide)

Variant	enrichment
chain 1 T12S	-7.83 log2 (difference from the parental peptide)
chain 1 T12P	-5.93 log2 (difference from the parental peptide)
chain 1 T12L	1.89 log2 (difference from the parental peptide)
chain 1 Y8V	3.87 log2 (difference from the parental peptide)
chain 1 Y8F	-1.72 log2 (difference from the parental peptide)
chain 1 L11I	0.571 log2 (difference from the parental peptide)
chain 1 L11F	1.48 log2 (difference from the parental peptide)
chain 1 L11D	0.52 log2 (difference from the parental peptide)
chain 1 L11Q	-4.52 log2 (difference from the parental peptide)
chain 1 L11T	-4.92 log2 (difference from the parental peptide)
chain 1 L11N	-0.349 log2 (difference from the parental peptide)
chain 1 L11H	3.17 log2 (difference from the parental peptide)
chain 1 T16M	1.39 log2 (difference from the parental peptide)
chain 1 T16E	-5.76 log2 (difference from the parental peptide)
chain 1 T16N	-3.97 log2 (difference from the parental peptide)
chain 1 T16P	-4.73 log2 (difference from the parental peptide)
chain 1 T16K	0.732 log2 (difference from the parental peptide)
chain 1 T16Q	-5.09 log2 (difference from the parental peptide)
chain 1 T16A	-3.04 log2 (difference from the parental peptide)
chain 1 T16V	-2.39 log2 (difference from the parental peptide)
chain 1 T6H	-0.995 log2 (difference from the parental peptide)
chain 1 T6A	0.332 log2 (difference from the parental peptide)
chain 1 T6L	0.717 log2 (difference from the parental peptide)
chain 1 T6C	-9.38 log2 (difference from the parental peptide)
chain 1 T6F	0.389 log2 (difference from the parental peptide)

Variant	enrichment
chain 1 T6D	3.46 log2 (difference from the parental peptide)
chain 1 T6I	0.467 log2 (difference from the parental peptide)
chain 1 T6V	-0.538 log2 (difference from the parental peptide)
chain 1 T6R	3.99 log2 (difference from the parental peptide)
chain 1 T6G	4.19 log2 (difference from the parental peptide)
chain 1 T6W	5.58 log2 (difference from the parental peptide)
chain 1 A9I	0.725 log2 (difference from the parental peptide)
chain 1 A9M	0.996 log2 (difference from the parental peptide)
chain 1 A9S	-1.59 log2 (difference from the parental peptide)
chain 1 A9Y	-5.34 log2 (difference from the parental peptide)
chain 1 A9L	0.282 log2 (difference from the parental peptide)
chain 1 A9D	-5.49 log2 (difference from the parental peptide)
chain 1 A7Q	-3.16 log2 (difference from the parental peptide)
chain 1 A7I	0.79 log2 (difference from the parental peptide)
chain 1 A7K	3.78 log2 (difference from the parental peptide)
chain 1 A7M	-3.2 log2 (difference from the parental peptide)
chain 1 A7D	3.18 log2 (difference from the parental peptide)
chain 1 A7F	2.13 log2 (difference from the parental peptide)
chain 1 A7E	2.45 log2 (difference from the parental peptide)
chain 1 F15R	-5.53 log2 (difference from the parental peptide)
chain 1 E1Y	0.958 log2 (difference from the parental peptide)
chain 1 E1D	2.43 log2 (difference from the parental peptide)
chain 1 E1L	0.456 log2 (difference from the parental peptide)
chain 1 E1F	0.23 log2 (difference from the parental peptide)
chain 1 E1I	3.24 log2 (difference from the parental peptide)
